The values below come from article PMC11487272 (Nature Communications, 2024).

Data set [1] deals with the molecule itself. In words: cryo-EM structure.
In data set [2] the target is full-length Casp-8 F122G/L123G/C360A/D374A/D384A (UniProt Q14790 1-479, F122G | L123G | C360A | D374A | D384A). Briefly: co-purification.
The target in data set [3] is T1, His-tagged full-length FADD F25Y (UniProt Q13158 1-208, F25Y).
T1 sequence: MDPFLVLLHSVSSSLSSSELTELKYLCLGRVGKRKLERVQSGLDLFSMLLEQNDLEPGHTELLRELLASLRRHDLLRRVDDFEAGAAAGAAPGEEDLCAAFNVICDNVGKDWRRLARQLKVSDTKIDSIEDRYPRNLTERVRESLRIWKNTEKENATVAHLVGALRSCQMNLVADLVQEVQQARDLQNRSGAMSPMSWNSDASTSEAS
In words: pull-down.

Data set [4] has as its target wild-type cFLIP^tDED (residues 1-181) (UniProt O15519 1-181). In words: crystal structure.

B1: His-tagged full-length FADD F25G (natural protein)
chain: MDPFLVLLHSVSSSLSSSELTELKGLCLGRVGKRKLERVQSGLDLFSMLLEQNDLEPGHTELLRELLASLRRHDLLRRVDDFEAGAAAGAAPGEEDLCAAFNVICDNVGKDWRRLARQLKVSDTKIDSIEDRYPRNLTERVRESLRIWKNTEKENATVAHLVGALRSCQMNLVADLVQEVQQARDLQNRSGAMSPMSWNSDASTSEAS
Regarding B1, the “stoichiometry N” value in data set [1] was 3 molecules in the complex. In addition, in data set [2], the binding result is on record as “binds”.

B2: binary CF^H7G-C8^FGLG complex, His-tag removed, SEC-purified (complex)
chain 1: […]
chain 2: MDFSRNLYDIGEQLDSEDLASLKFLSLDYIPQRKQEPIKDALMLFQRLQEKRMLEESNLSFLKELLFRINRLDLLITYLNTRKEEMERELQTPGRAQISAYRVMLYQISEEVSRSELRSFKGGLQEEISKCKLDDDMNLLDIFIEMEKRVILGEGKLDILKRVCAQINKSLLKIINDYEEFSKER
B2: in data set [3], the binding result is on record as “binds”.

B3: Casp-8^tDED_FGLG (procaspase-8 tandem DED, residues 1-185, F122G/L123G) (domain or fragment)
chain: MDFSRNLYDIGEQLDSEDLASLKFLSLDYIPQRKQEPIKDALMLFQRLQEKRMLEESNLSFLKELLFRINRLDLLITYLNTRKEEMERELQTPGRAQISAYRVMLYQISEEVSRSELRSFKGGLQEEISKCKLDDDMNLLDIFIEMEKRVILGEGKLDILKRVCAQINKSLLKIINDYEEFSKER
Take B3: in data set [4], the binding result is on record as “binds”.

By stoichiometry N is commonly meant the number of molecules, sites or subunits per partner or assembly.
